From PMC4344327, “Region-Specific Activation of oskar mRNA Translation by Inhibition of Bruno-Mediated Repression” (PLoS Genetics, 2015)

T1: GST::Bru (full-length Bruno fused to GST) (Drosophila, UniProt O02374 1-604)
T1 construct: Bruno (Bru; encoded by the aret gene), Drosophila; full-length bru cDNA subcloned into pGEX-2TK; Vector pGEX-2TK; source: E. coli CodonPlus, extract, immobilized on Glutathione Sepharose 4B
T1 sequence (looked up): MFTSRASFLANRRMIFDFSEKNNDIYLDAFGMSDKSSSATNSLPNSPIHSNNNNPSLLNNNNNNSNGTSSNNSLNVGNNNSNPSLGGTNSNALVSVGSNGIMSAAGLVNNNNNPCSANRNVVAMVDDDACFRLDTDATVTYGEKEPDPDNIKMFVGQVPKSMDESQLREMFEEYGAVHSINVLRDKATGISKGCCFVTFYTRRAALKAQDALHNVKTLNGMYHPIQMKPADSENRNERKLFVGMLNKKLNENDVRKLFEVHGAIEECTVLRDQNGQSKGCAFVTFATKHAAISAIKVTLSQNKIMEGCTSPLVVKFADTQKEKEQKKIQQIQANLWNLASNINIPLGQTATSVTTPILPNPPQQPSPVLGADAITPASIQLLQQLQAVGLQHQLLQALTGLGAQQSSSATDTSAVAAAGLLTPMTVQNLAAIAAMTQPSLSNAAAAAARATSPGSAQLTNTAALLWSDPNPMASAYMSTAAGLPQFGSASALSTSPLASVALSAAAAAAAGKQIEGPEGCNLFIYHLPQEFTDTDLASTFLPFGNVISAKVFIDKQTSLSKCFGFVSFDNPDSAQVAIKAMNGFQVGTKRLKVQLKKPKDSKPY

B1: His6::Bru (full-length Bruno, Bru+) (natural protein, Drosophila, UniProt O02374 1-604, looked up)
chain: T1 sequence (looked up)
notes: Bruno (Bru; encoded by the aret gene), Drosophila; full-length Bru in pET-15b; Vector pET-15b; The tethered transgene proteins carry RRM2/RRM3 point mutations; source: E. coli, purified (Ni-NTA); not shown: His6, N-terminal, kept
B2: His6::Bru Δ334–416 (natural protein, Drosophila, UniProt O02374 1-604, looked up)
chain: MFTSRASFLANRRMIFDFSEKNNDIYLDAFGMSDKSSSATNSLPNSPIHSNNNNPSLLNNNNNNSNGTSSNNSLNVGNNNSNPSLGGTNSNALVSVGSNGIMSAAGLVNNNNNPCSANRNVVAMVDDDACFRLDTDATVTYGEKEPDPDNIKMFVGQVPKSMDESQLREMFEEYGAVHSINVLRDKATGISKGCCFVTFYTRRAALKAQDALHNVKTLNGMYHPIQMKPADSENRNERKLFVGMLNKKLNENDVRKLFEVHGAIEECTVLRDQNGQSKGCAFVTFATKHAAISAIKVTLSQNKIMEGCTSPLVVKFADTQKEKEQKKIQQIQAAAGLLTPMTVQNLAAIAAMTQPSLSNAAAAAARATSPGSAQLTNTAALLWSDPNPMASAYMSTAAGLPQFGSASALSTSPLASVALSAAAAAAAGKQIEGPEGCNLFIYHLPQEFTDTDLASTFLPFGNVISAKVFIDKQTSLSKCFGFVSFDNPDSAQVAIKAMNGFQVGTKRLKVQLKKPKDSKPY
notes: also called Bru lacking most of the linker domain between RRMs 2 and 3; source: E. coli, purified (Ni-NTA); not shown: His6, N-terminal, kept
B3: His6::Bru 1–146 (isolated amino-terminal domain) (domain or fragment, Drosophila, UniProt O02374 1-146, looked up)
chain: MFTSRASFLANRRMIFDFSEKNNDIYLDAFGMSDKSSSATNSLPNSPIHSNNNNPSLLNNNNNNSNGTSSNNSLNVGNNNSNPSLGGTNSNALVSVGSNGIMSAAGLVNNNNNPCSANRNVVAMVDDDACFRLDTDATVTYGEKEP
notes: also called Bru amino-terminal domain; source: E. coli, purified (Ni-NTA); not shown: His6, N-terminal, kept

Target: T1, GST::Bru (full-length Bruno fused to …)
Assay: pull-down; GST::Bru, GST::Cup or GST immobilized on Glutathione Sepharose 4B from E. coli extract and washed; ~100 ng N-terminally His6-tagged Bru protein in 80 μl binding buffer (50mM Tris-Cl pH7.5, 150mM NaCl, 10% glycerol, 1mM DTT, 0.1% IGEPAL-CA-630), 2–3 hr at room temperature; Western blot with anti-His antibody
Details: both partners purified

Binder	binding result
B1	binds
B2	binds
B3	binds
